T1: mouse SIRPα D1-Fc (mouse, UniProt P97797 32-150, limits assumed)
T1 construct: domain: D1
T1 sequence (looked up): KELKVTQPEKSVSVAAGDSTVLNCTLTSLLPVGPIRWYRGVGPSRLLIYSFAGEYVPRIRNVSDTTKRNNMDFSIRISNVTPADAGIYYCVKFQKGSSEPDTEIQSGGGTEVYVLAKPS

T2: mouse SIRPα on cells (mouse, UniProt P97797 32-513)
T2 construct: whole, on cells
T2 sequence (looked up): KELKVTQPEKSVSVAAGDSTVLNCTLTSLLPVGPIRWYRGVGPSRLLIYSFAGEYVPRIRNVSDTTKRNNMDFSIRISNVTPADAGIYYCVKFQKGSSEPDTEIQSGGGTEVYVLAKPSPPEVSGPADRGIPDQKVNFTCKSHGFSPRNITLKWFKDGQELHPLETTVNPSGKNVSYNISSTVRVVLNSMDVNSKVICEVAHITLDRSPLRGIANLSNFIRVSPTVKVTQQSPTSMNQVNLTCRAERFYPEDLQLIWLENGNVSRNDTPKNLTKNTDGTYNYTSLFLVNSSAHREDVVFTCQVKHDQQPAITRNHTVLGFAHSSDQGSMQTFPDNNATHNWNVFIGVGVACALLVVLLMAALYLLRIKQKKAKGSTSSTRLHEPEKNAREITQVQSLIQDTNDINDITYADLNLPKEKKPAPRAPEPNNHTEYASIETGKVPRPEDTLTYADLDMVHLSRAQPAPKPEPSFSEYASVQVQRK

T3: mouse SIRPβ1 on CHO cells (mouse)
T3 construct: Whole entry
T3 chain: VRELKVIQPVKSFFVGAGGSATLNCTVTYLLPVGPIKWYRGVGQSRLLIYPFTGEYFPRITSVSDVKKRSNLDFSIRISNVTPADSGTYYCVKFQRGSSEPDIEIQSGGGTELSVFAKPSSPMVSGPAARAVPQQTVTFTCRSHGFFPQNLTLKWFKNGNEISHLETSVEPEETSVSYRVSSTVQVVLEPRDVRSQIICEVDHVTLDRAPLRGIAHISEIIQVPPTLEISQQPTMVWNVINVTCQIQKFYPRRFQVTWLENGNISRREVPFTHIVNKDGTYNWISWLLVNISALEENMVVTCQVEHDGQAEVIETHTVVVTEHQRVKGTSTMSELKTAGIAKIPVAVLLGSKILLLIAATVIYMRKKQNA


Experiments:
[1] = biological target: T4, human SIRPα domain 1 (D1) Fc fusion (human, UniProt P78324 32-149); experiment: Octet
T4 construct: also called human SIRPα D1-Fc; Human SIRPα Fc; not shown: C-terminal human IgG1 Fc

mouse SIRPα D1-Fc = biological target: T1, mouse SIRPα D1-Fc; experiment: Octet
[2] = biological target: T5, human SIRPβ1 domain 1 (D1) Fc fusion (human, UniProt O00241 30-148); experiment: Octet, IgG avid
T5 construct: Made in HEK293/T cells with a heterologous signal peptide; also called Human SIRPβ1 D1-Fc; Human SIRPβ1-Fc; not shown: C-terminal human IgG1 Fc

human SIRPα on cells [3] = biological target: T6, human SIRPα on cells (human, UniProt P78324 31-504); experiment: flow cytometry;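 as to FOB: antibodies tested at 1 µg/ml for 30 min on ice against receptor-expressing cells, detected with a PE-labelled secondary antibody, read as mean fluorescence intensity relative to background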
T6 construct: Whole entry

[4] = biological target: T7, human SIRPβ1 isoform 1 on cells (human, UniProt O00241 30-398); experiment: flow cytometry;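 also: antibodies tested at 1 µg/ml for 30 min on ice against receptor-expressing cells, detected with a PE-labelled secondary antibody, read as mean fluorescence intensity relative to background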
T7 construct: On CHO cells (low level), on BWZ/BW5147.G.1.4 cells (reporter cells co-express human DAP12) or on primary human myeloid cells; also called huSIRPβ1; BWZ-huSIRPβ1

mouse SIRPα on cells [5] = biological target: T2, mouse SIRPα on cells; experiment: flow cytometry;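 as to FOB: antibodies tested at 1 µg/ml for 30 min on ice against receptor-expressing cells, detected with a PE-labelled secondary antibody, read as mean fluorescence intensity relative to background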
[6] = biological target: T3, mouse SIRPβ1 on CHO cells; experiment: flow cytometry;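 as to FOB: antibodies tested at 1 µg/ml for 30 min on ice against receptor-expressing cells, detected with a PE-labelled secondary antibody, read as mean fluorescence intensity relative to background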
human SIRPα on cells [7] = biological target: T6, human SIRPα on cells; experiment: flow cytometry; remark: listed apart in the source
mouse SIRPα on cells [8] = biological target: T2, mouse SIRPα on cells; experiment: flow cytometry; remark: listed apart in the source
[9] = biological target: T3, mouse SIRPβ1 on CHO cells; experiment: flow cytometry

T7 sequence (O00241 30-398): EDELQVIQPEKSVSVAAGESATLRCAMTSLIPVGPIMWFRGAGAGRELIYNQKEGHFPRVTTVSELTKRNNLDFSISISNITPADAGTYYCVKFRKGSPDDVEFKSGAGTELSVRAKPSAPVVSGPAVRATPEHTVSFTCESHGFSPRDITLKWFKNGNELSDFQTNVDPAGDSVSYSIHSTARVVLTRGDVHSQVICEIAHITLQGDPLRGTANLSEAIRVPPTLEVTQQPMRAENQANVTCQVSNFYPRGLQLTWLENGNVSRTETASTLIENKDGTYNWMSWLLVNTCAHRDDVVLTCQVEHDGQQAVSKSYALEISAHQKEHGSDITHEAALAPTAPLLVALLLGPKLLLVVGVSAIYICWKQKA
T5 sequence (O00241 30-148 limits assumed): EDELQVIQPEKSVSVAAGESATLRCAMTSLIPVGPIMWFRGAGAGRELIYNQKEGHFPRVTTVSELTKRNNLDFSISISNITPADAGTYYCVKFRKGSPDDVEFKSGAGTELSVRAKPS

Row | Binder | binding result [1] | binding result (mouse SIRPα D1-Fc) | Kd [2] [nM] | FOB (human SIRPα on cells [3]) [fold over background] | FOB [4] [fold over background] | FOB (mouse SIRPα on cells [5]) [fold over background] | FOB [6] [fold over background] | binding result (human SIRPα on cells [7]) | binding result (mouse SIRPα on cells [8]) | binding result [9]
1 | SB-12 (antibody, V domains shown, IgG) VH: not shown VL: EIVMTQSPATLSVSPGERATLSCRASQSVSSNLAWYQQKPGQAPRLLIYSASTRATGIPARFSGSGSGTEFTLTISSLQSEDFAVYYCQQLDNLPYTFGGGTKVEIK | no binding (tested: 100 nM) | no binding (tested: 100 nM) | 4.94 | 2 | 1.6 | 1.2 | 1.3 | no binding (tested: 1 ug/ml) | no binding (tested: 1 ug/ml) | no binding (tested: 1 ug/ml)
2 | SB-47 (antibody, V domains shown, IgG) VH: QLQLQESGPGLVKPSETLSLTCTVSGGSISSSSYAWGWIRQPPGKGLEWIGSIYYSGSTYYNPSLKSRVTISVDTSKNQFSLKLSSVTAADTAVYYCARDLGHYDYWSGSRDYYYGMDVWGQGTTVTVSS VL: DIQMTQSPSSLSASVGDRVTITCQASQDISNYLNWYQQKPGKAPKLLIYDASNLETGVPSRFSGSGSGTDFTFTISSLQPEDIATYYCQQADYFPITFGGGTKVEIK | no binding (tested: 100 nM) | no binding (tested: 100 nM) | 14.4 | 2.1 | 1.6 | 1.7 | 1.3 | no binding (tested: 1 ug/ml) | no binding (tested: 1 ug/ml) | no binding (tested: 1 ug/ml)
3 | SB-38 (antibody, V domains shown, IgG) VH: QVQLVQSGAEVKKPGASVKVSCKASGYTFTSYYMHWVRQAPGQGLEWMGIINPSGGSTSYAQKFQGRVTMTRDTSTSTVYMELSSLRSEDTAVYYCARESGTDFGTISYWGQGTLVTVSS VL: DIQMTQSPSSVSASVGDRVTITCRASQGISSWLAWYQQKPGKAPKLLIYAASSLQSGVPSRFSGSGSGTDFTLTISSLQPEDFATYYCQQAVSYPITFGGGTKVEIK | no binding (tested: 100 nM) | no binding (tested: 100 nM) | 7.33 | 2.1 | 1.5 | 1.1 | 1.3 | no binding (tested: 1 ug/ml) | no binding (tested: 1 ug/ml) | no binding (tested: 1 ug/ml)
4 | SB-37 (antibody, V domains shown, IgG) VH: QVQLVQSGAEVKKPGSSVKVSCKASGGTFSNYAISWVRQAPGQGLEWMGGIIPIFGTANYAQKFQGRVTITADESTSTAYMELSSLRSEDTAVYYCARSRWGASGYYYYMDVWGQGTMVTVSS VL: EIVLTQSPATLSLSPGERATLSCRASQSVSSYLAWYQQKPGQAPRLLIYDASNRATGIPARFSGSGSGTDFTLTISSLEPEDFAVYYCQQRHTYPLTFGGGTKVEIK | no binding (tested: 100 nM) | no binding (tested: 100 nM) | 7.5 | 2.2 | 3.8 | 1 | 1.2 | no binding (tested: 1 ug/ml) | no binding (tested: 1 ug/ml) | no binding (tested: 1 ug/ml)
5 | SB-43 (antibody, V domains shown, IgG) VH: QVQLQESGPGLVKPSETLSLTCAVSGYSISSGYYWAWIRQPPGKGLEWIGSIYHSGSTYYNPSLKSRVTISVDTSKNQFSLKLSSVTAADTAVYYCARDAPGYPMLGMDVWGQGTTVSVSS VL: EIVLTQSPATLSLSPGERATLSCRASQSVSSYLAWYQQKPGQAPRLLIYDASKRATGIPARFSGSGSGTDFTLTISSLEPEDFAVYYCQQRFDFPITFGGGTKVEIK | no binding (tested: 100 nM) | no binding (tested: 100 nM) | 12.3 | 2.3 | 2.8 | 1.6 | 1.1 | no binding (tested: 1 ug/ml) | no binding (tested: 1 ug/ml) | no binding (tested: 1 ug/ml)
6 | SB-42 (antibody, V domains shown, IgG) VH: QVQLVQSGAEVKKPGASVKVSCKASGYTFTSYGISWVRQAPGQGLEWMGWISAYNGNTNYAQKLQGRVTMTTDTSTSTAYMELRSLRSDDTAVYYCARGPGHYYVAGMDVWGQGTTVTVSS VL: EIVMTQSPATLSVSPGERATITCRASQSISSYLNWYQQKPGKAPKLLIYSASSLQSGVPSRFSGSGSGTDFTLTISSLQPEDFATYYCQQGDSFPITFGGGTKVEIK | no binding (tested: 100 nM) | no binding (tested: 100 nM) | 12.3 | 2.7 | 3.3 | 1.2 | 1.2 | no binding (tested: 1 ug/ml) | no binding (tested: 1 ug/ml) | no binding (tested: 1 ug/ml)

Other lines, results leading:

Row | binding result [1] | binding result (mouse SIRPα D1-Fc) | Kd [2] [nM] | FOB (human SIRPα on cells [3]) [fold over background] | FOB [4] [fold over background] | FOB (mouse SIRPα on cells [5]) [fold over background] | FOB [6] [fold over background] | binding result (human SIRPα on cells [7]) | binding result (mouse SIRPα on cells [8]) | binding result [9] | Binder
7 | no binding (tested: 100 nM) | no binding (tested: 100 nM) | 18.9 | 2.9 | 2.8 | 1.2 | 1.5 | no binding (tested: 1 ug/ml) | no binding (tested: 1 ug/ml) | no binding (tested: 1 ug/ml) | SB-44 (antibody, V domains shown, IgG) VH: EVQLVESGGGLVQPGGSLRLSCAASGFTVSSNYMSWVRQAPGKGLEWVSVIYSGGDTYYADSVKGRFTISRDNSKNTLYLQMNSLRAEDTAVYYCAREGSSFWSGSAVSYYGMDVWGQGTTVTVSS VL: DIQMTQSPSTLSASVGDRVTITCRASQSIGSWLAWYQQKPGKAPKLLIYKASSLESGVPSRFSGSGSGTEFTLTISSLQPDDFATYYCQEYGSYRTFGGGTKVEIK
8 | no binding (tested: 100 nM) | no binding (tested: 100 nM) | 20 | 2.1 | 5.3 | 1.4 | 1.3 | no binding (tested: 1 ug/ml) | no binding (tested: 1 ug/ml) | no binding (tested: 1 ug/ml) | SB-46 (antibody, V domains shown, IgG) VH: not shown VL: EIVLTQSPGTLSLSPGERATLSCRASQSVRSSYLAWYQQKPGQAPRLLIYGASSRATGIPDRFSGSGSGTDFTLTISRLEPEDFAVYYCQQLYSSPYTFGGGTKVEIK
9 | no binding (tested: 100 nM) | no binding (tested: 100 nM) | 13.9 | 2.5 | 8.5 | 1.2 | 1.4 | no binding (tested: 1 ug/ml) | no binding (tested: 1 ug/ml) | no binding (tested: 1 ug/ml) | SB-45 (antibody, V domains shown, IgG) VH: QVQLQESGPGLVKPSETLSLTCAVSGYSISSGYYWAWIRQPPGKGLEWIGSIYHSGSTYYNPSLKSRVTISVDTSKNQFSLKLSSVTAADTAVYYCARDLSRGYAVSGMDVWGQGTTVTVSS VL: VLTQSPGTLSLSPGERATLSCRASQSVSSSFLAWYQQKPGQAPRLLIYGASSRATGIPDRFSGSGSGTDFTLTISRLEPEDFAVYYCQQVVSVPTFGGGTKVEIK
10 | no binding (tested: 100 nM) | no binding (tested: 100 nM) | 7.47 | 2.6 | 2.1 | 1 | 1.1 | no binding (tested: 1 ug/ml) | no binding (tested: 1 ug/ml) | no binding (tested: 1 ug/ml) | SB-35 (antibody, V domains shown, IgG) VH: QVQLVQSGAEVKKPGSSVKVSCKASGGTFSSYAISWVRQAPGQGLEWMGGIIPIFGTANYAQKFQGRVTITADESTSTAYMELSSLRSEDTAVYYCARGRPQSESYLLDYWGQGTLVTVSS VL: not shown

Source: patent publication US20250026827A1 (Alector, published 2025)
